# B1: Spn-F, recombinant, MBP-His6 tag cleaved (natural protein)
# chain: MEASAAKITPMASSMSASGSTNSPSSEKMNYALQVALQTIKERCIQLQRRVASMEEENQQLREASSRSEGAPRANEIGVTGDVLSLKAQVSELQRQKEQLEEHIGMVSNENRRLWSRLSQISKDQQLNALPSSTDSRAQQNQNLVRSKTFTQHSPNPHLRQKMLSDGIKDLSLEEIALDDFGASSEELGYPYNLQKVEETTSEPDANVDAKRCLDGLQELRREAMKQQQELRSVMTLLENRIALKPCPECAQKTIKKPEMADKSLETDDSLTSELKNYESQHNGHNGTPPSQRINIIQEKIKADAADAMEKTCPMCGKQYSSQVSFNAFREHVEMHFIDDALELESENSIERQFEFVSHAVGDF
# Experiments:
# [1] = target: EGF receptor (Homo sapiens) (UniProt P00533); details: cited from earlier work
# [2] = target: Ik2-MBPHis fusion protein (Drosophila); experiment: SPR; ProteOn XPR36, GLC chip; Ik2-MBPHis (1400 RU) and Sec13-MBP (5500 RU) amine-coupled; Spn-F injected at six concentrations 0.1625 to 5 μM; PBS pH 7.4, 0.005% Tween 20, 25°C; global fit to 1:1 Langmuir model
molecule,measurement,setting,value
EGF (from UniProt P01133),Kd,[1],410 nM
B1,Kd,[2],407 nM
same,koff,[2],0.00169 s⁻¹
same,kon,[2],4150 M⁻¹ s⁻¹
